One data set deals with T1, WT Ssa1p (yeast (S. cerevisiae), UniProt P10591 1-642).
T1 construct: Ssa1p, yeast HSP70 family member, residues 1-642 (NBD, SBD, CTD); also called wild-type Ssa1p; full-length Ssa1p; source: plasmid pPROEX-HTb-Ssa1
The experiment in a line: co-sedimentation; called 'pull-down assay' / 'filament pull-down assay': 10 μM Ure2p fibril seeds with 20 μM WT or ΔA Ssa1p, Tris buffer pH 8.4, 30°C, 2 h; centrifuged through 40 per cent sucrose at 61 000 rpm, 30 min, 4°C; washed pellets on SDS-PAGE. Conditions: both partners purified.

Data set [1] deals with the molecule itself. The experiment in a line: quartz crystal microbalance; sonicated Ure2p fibril seeds attached to the gold sensor by Traut's reagent; 1 μM soluble Ure2p introduced, measured without flow; Tris buffer pH 8.4; elongation of the surface-bound seeds.

T1 sequence (P10591 whole entry, the tested form may be a part): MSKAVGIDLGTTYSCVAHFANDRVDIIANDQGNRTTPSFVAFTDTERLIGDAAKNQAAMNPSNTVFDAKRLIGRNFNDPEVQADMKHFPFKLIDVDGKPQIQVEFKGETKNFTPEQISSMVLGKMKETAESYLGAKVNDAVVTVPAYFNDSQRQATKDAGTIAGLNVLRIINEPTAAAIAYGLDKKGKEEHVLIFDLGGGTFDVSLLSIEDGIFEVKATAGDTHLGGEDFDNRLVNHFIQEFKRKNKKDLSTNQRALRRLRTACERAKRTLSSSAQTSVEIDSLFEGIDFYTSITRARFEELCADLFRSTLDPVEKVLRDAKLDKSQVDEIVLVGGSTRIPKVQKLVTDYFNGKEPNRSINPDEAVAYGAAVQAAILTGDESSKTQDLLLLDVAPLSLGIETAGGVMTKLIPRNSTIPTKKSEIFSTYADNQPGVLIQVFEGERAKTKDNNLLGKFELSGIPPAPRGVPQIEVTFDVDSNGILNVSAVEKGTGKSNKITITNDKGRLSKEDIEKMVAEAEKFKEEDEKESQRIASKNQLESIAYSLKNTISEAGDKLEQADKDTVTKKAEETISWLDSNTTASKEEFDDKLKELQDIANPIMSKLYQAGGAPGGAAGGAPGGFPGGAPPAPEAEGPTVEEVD

B1: Ure2p (natural protein, Saccharomyces cerevisiae, UniProt P23202 1-354, looked up)
chain: MMNNNGNQVSNLSNALRQVNIGNRNSNTTTDQSNINFEFSTGVNNNNNNNSSSNNNNVQNNNSGRNGSQNNDNENNIKNTLEQHRQQQQAFSDMSHVEYSRITKFFQEQPLEGYTLFSHRSAPNGFKVAIVLSELGFHYNTIFLDFNLGEHRAPEFVSVNPNARVPALIDHGMDNLSIWESGAILLHLVNKYYKETGNPLLWSDDLADQSQINAWLFFQTSGHAPMIGQALHFRYFHSQKIASAVERYTDEVRRVYGVVEMALAERREALVMELDTENAAAYSAGTTPMSQSRFFDYPVWLVGDKLTIADLAFVPWNNVVDRIGINIKIEFPEVYKWTKHMMRRPAVIKALRGE
notes: Ure2p, the protein determinant of the Saccharomyces cerevisiae prion state [URE3]; a 354-residue protein; One construct used in two states: native soluble protein (DLS, solution phase of QCM) and sonicated fibril seeds (co-sedimentation, QCM sensor; seeds treated with Traut's reagent for the sensor); The state is told in each assay's format; also called native Ure2p; soluble Ure2p; source: …
Turning to B1, the binding result (with WT Ssa1p; in data set [1]) was “binds” each time.

These data come from article PMC3638396 (Philosophical Transactions of the Royal Society B: …, 2013).
